In experiment [1] the target is PTPRZ1 CA protein (Cusabio Technology LLC, CSB-YP019068HU) (Homo sapiens, UniProt P23471). Put plainly: SPR. In general terms: SPR reads the build-up and loss of mass on a sensor chip optically.
Experiment [2] has as its target carbonic anhydrase II protein (Sigma Aldrich, C2522) (Bos taurus, UniProt P00921). The experiment can be described thus: SPR.

Broadly, the Kd is the free concentration of one partner at which half of the binding sites on the other are occupied at equilibrium, for simple one-to-one binding.

Chain of PTPRZ1 CA protein (Cusabio Technology LLC, CSB-YP019068HU) (P23471 36-300): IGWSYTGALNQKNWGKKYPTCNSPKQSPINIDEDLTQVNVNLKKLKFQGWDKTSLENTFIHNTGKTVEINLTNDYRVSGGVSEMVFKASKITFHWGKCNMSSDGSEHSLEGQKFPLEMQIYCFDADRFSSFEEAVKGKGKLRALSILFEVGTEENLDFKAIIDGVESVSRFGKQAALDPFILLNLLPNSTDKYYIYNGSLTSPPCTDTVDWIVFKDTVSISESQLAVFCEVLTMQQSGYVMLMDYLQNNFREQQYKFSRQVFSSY
Chain of carbonic anhydrase II protein (Sigma Aldrich, C2522) (P00921 whole entry): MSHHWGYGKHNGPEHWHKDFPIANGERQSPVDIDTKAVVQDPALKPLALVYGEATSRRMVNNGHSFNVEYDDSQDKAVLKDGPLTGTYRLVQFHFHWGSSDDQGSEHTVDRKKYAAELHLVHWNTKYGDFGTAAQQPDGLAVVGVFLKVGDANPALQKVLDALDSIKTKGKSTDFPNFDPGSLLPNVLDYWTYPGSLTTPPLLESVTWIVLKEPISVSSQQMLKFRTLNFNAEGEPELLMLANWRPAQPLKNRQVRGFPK

B1: anti-PTPRZ1 scFv RB473, scFv-Rabbit Fc (scFv, V domains shown)
VH: not shown
VL: QSVLTQPPSVSAAPGQKVTISCSGSSSNIGNNYVSWYQQLPGTAPKLLIYDNNKRPSGIPDRFSGSKSGTSATLGITGLQTGDEADYYCGTYDYIATRAVFGGGTKLTVL
As to B1, the Kd in experiment [1] came to 57.4 nM. Also, in experiment [2], the binding result is recorded as “no binding (tested: 800 nM)”.
